Laboratory results published in patent US20260226168A1.

Target: human GPRC5D protein (human) (UniProt Q9NZD1)
Experiment: FACS, subclone culture supernatant on NCI-H929 cells (medium alone: MFI 8242)

human GPRC5D protein (human), sequence (Q9NZD1 whole entry): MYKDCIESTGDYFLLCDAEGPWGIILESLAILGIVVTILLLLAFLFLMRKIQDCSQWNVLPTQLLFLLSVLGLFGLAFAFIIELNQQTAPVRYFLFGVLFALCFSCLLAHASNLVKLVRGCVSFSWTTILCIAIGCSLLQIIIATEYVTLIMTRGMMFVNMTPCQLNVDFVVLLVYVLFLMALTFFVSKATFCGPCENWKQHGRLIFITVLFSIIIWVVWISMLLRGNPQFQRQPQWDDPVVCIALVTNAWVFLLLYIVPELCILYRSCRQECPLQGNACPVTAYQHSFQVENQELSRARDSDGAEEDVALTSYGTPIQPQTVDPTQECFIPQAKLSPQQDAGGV

Row | Binder | MFI
1 | mu-105 (antibody, V domains shown) VH: EVQLQQSGPELVKPGASVKMSCKASGYTFTDYYMNWVKQSHGKSLEWIGYIYPNNGGTGYNQRFKGKATLTADKSSSTAYMELRSLTSEDSAVYYCARWGGTRLGYYAMDYWGQGTSVTVSS VL: DIVMTQSQKFMSTSVGDRVSVTCKASQNVGTNVVWYQQKPGQSPKLLIYWASTRHTGVPDRFTGSGSGTDFTLTISNVQSEDLADYFCQQYSRYPYTFGGGTKLEIK | 13200
2 | mu-89 (antibody, V domains shown) VH: EVQLVESGGDLVKPGGSLKLSCAASGFTFSSYGMSWVRQTPDKRLEWVATISSGGSYTYYPDSVKGRFTFSRDNAKNTLYLQMSSLKSEDTAMYYCVRQALRYHMDSWGQGTSVTVSS VL: DIVMTQSQKFMSTSVGDRVSVTCKASQNVGTNVAWYQQKPGQSPKALIYSASYRYSGVPDRFTGSGSGTDFTLTISNVQSEDLADFFCQQYYSYPWTFGGGTKLEIK | 11900

The next lines start with the values.

Row | MFI | Binder
3 | 15700 | mu-128 (antibody, V domains shown) VH: DVQLVESGGGLVQPGGSRKVSCAASGFTFSSFGMHWVRQAPEKGLEWVAYISRGSSTIYYADTVKGRFTISRDNPKNTLFLQMTSLRSEDTAMYYCARSGYGSSSYYFDYWGQGTTLTVSS VL: ENVLTQSPAIMSASPREKVTMTCRASSSIRSSYLHWYQQKSGASPKLWIYSTSNLASGVPARFSGSGSGTSYSLTISSVEAEDAATYYCQQFSGYPLTFGGGTKLEIK
4 | 12800 | mu-131 (antibody, V domains shown) VH: EVQLQQSGPELVKPGASVKMSCKASGYTFTNYVMHWVKQKPGQGLEWIGYFNPYNDGTNYNEKFKGKATLTSDKSSNTAYMELSSLTSEDSAVYYCARGGVRRYFDVWGAGTTVTVSS VL: DIQMTQSPSSLSASLGERVSLTCRASQDIGSNLNWLQLGPDGTIKRLIYATFSLDSGVPKRFSGSRSGSDYSLTISSLESEDFVDYYCQQYANFPPTFGGGTKLEIK
